Bounds are passed on as bounds.

In general, Kd refers to the concentration at which binding is half-saturated.

Holding throughout (experiment): IEDB peptide-MHC binding, purified MHC/competitive/radioactivity; filed as Kd, often an IC50 or EC50 that approximates it; ≥ and ≤ were set here for values at or beyond the usual limits of such assays
In test [1] the target is HLA-A*02:06.
For test [2], the target named is HLA-A*02:03.
For test [3], the target named is HLA-A*02:02. To be noted: source organism: Vaccinia virus WR.
The target of test [4] is HLA-A*03:01.
Test [5] has as its target HLA-A*31:01.
Test [6] addresses HLA-A*68:01.
Test [7] concerns the target HLA-A*11:01.
For test [8], the target named is HLA-A*33:01.
[9] abbreviates: source organism: Vaccinia virus WR.
Setting [10] is: source organism: Dengue virus 4 Philippines/H241/1956.
[11] abbreviates: source organism: Dengue virus 1 Brazil/97-11/1997.
Where [12] appears, read: source organism: SARS coronavirus Tor2.
The mark [13] stands for this setting: source organism: Triticum aestivum.
The mark [14] stands for this setting: source organism: Vaccinia virus Copenhagen.

For IISTDQDTML, the Kd was determined as 666 nM in test [1] (setting [9]), 1810 nM in test [2] (setting [9]) and 451 nM in test [3].
As for GQIHLAIMAV, the Kd in test [1] (setting [10]) was determined as 1.33 nM.
NVKSKLLWFL: the Kd was not below 31000 nM in test [1] (setting [9]), 633 nM in test [2] (setting [9]) and 2290 nM in test [3].
With VQIENLEYTV, the Kd in test [1] (setting [10]) is 4.4 nM.
Regarding LLNETAKVI, the Kd was determined as 15400 nM in test [1] (setting [9]), 71.4 nM in test [2] (setting [9]) and 319 nM in test [3].
Taken in the same sequence, the figures for ITGNKVKTEL were not below 69800 nM, not below 70400 nM and not below 70000 nM.
With LLMLVTPSMA, the Kd in test [2] (setting [11]) stood at 23.6 nM.
Turning to NIVASVNMV, the Kd in test [2] (source organism: Dengue virus 3 Martinique/1243/1999) stood at 82.9 nM.
With DLNSFEQLCI, the Kd in test [1] (source organism: Homo sapiens) was not below 128000 nM.
For YVLGIFLRKL, the Kd in test [1] (setting [10]) was 32.6 nM.
As to QIGEYTFEK, the Kd in test [4] (setting [12]) was 48.7 nM; in test [5] (setting [12]) it was 1920 nM; in test [6] (setting [12]), 589 nM; in test [7] (setting [12]) it was 9.93 nM; in test [8] (setting [12]), not below 22200 nM.
The matching figures for SLQVCVQTVR: 13300 nM, 470 nM, 5790 nM, 7030 nM and 5110 nM.
Regarding VLKAMHDKK, the Kd is 263 nM in test [4] (setting [9]); 126 nM in test [5] (setting [9]); 3420 nM in test [6] (setting [9]); 364 nM in test [7] (setting [9]); 977 nM in test [8] (setting [9]).
Turning to LQQHNIVHGK, the Kd in test [4] (setting [13]) is 1160 nM; in test [5] (setting [13]) it was 2420 nM; in test [6] (setting [13]), not below 47900 nM; in test [7] (setting [13]) it was 100 nM; in test [8] (setting [13]), not below 70000 nM.
On to SLAIKNYYR, for which the Kd is not below 43000 nM in test [4] (setting [14]); 3100 nM in test [5] (setting [14]); 6410 nM in test [6] (setting [14]); 6060 nM in test [7] (setting [14]); not below 77700 nM in test [8] (setting [14]).
GSSKGNCAIK: the Kd was 25 nM in test [4] (setting [9]); 3480 nM in test [5] (setting [9]); 23.1 nM in test [6] (setting [9]); 26.1 nM in test [7] (setting [9]); not below 29100 nM in test [8] (setting [9]).
As to LLFMILTVAA, the Kd in test [2] (setting [11]) was determined as 468 nM.
As to ITSTKTIEY, the Kd in test [4] (setting [9]) is 122 nM; in test [5] (setting [9]), 15100 nM; in test [6] (setting [9]) it was 1730 nM; in test [7] (setting [9]), 434 nM; in test [8] (setting [9]), not below 20900 nM.
IVTMMKYCSY: the Kd in test [4] (setting [9]) amounted to 127 nM; in test [5] (setting [9]), 31.6 nM; in test [6] (setting [9]) it was 41.5 nM; in test [7] (setting [9]), 26.8 nM; in test [8] (setting [9]), 235 nM.
VTSSGVIYK: the Kd in test [4] (source organism: Variola virus) was not below 70000 nM; in test [5] (source organism: Variola virus), not below 70000 nM; in test [6] (source organism: Variola virus) it was not below 70100 nM; in test [7] (source organism: Variola virus), not below 69700 nM; in test [8] (source organism: Variola virus), not below 70000 nM.
Take GFNTLKPIFK: the Kd in test [4] (setting [12]) is 140 nM; in test [5] (setting [12]), 1830 nM; in test [6] (setting [12]), 1960 nM; in test [7] (setting [12]), 105 nM; in test [8] (setting [12]), 19600 nM.
As to HIIDSFNIR, the Kd in test [4] (setting [9]) amounted to 1680 nM; in test [5] (setting [9]), 1.12 nM; in test [6] (setting [9]) it was 0.448 nM; in test [7] (setting [9]), 149 nM; in test [8] (setting [9]), 732 nM.
Consider AVNKSNKPLK, for which the Kd in test [4] (setting [9]) is 1090 nM; in test [5] (setting [9]) it was 1560 nM; in test [6] (setting [9]), 5960 nM; in test [7] (setting [9]), 147 nM; in test [8] (setting [9]), not below 47000 nM.
On to NIQKITVFNK, for which the Kd amounted to 47.4 nM in test [4] (setting [9]); 3.89 nM in test [5] (setting [9]); 30.5 nM in test [6] (setting [9]); 5.8 nM in test [7] (setting [9]); 1200 nM in test [8] (setting [9]).
The matching figures for LLVKMINHLK: 258 nM, 5420 nM, 776 nM, 400 nM and not below 67500 nM.
GLVSLLGSA: the Kd in test [2] (setting [10]) came out at 4.12 nM.
In the case of VVYRGTTTYK, the Kd in test [4] (setting [12]) turned out to be 5.74 nM; in test [5] (setting [12]) it was 260 nM; in test [6] (setting [12]) it was 11.6 nM; in test [7] (setting [12]) it was 15.8 nM; in test [8] (setting [12]) it was 6920 nM.
TLYAVATTVI: the Kd in test [2] (setting [11]) was found to be 195 nM.
Regarding WQIEKASLI, in test [1] (setting [10]), the Kd came out at 43.5 nM.
With AMPNLYKMQR, the Kd was 1040 nM in test [4] (setting [12]); 240 nM in test [5] (setting [12]); 1970 nM in test [6] (setting [12]); 1010 nM in test [7] (setting [12]); 11700 nM in test [8] (setting [12]).
For ILCFTIKRK, the Kd was 1000 nM in test [4] (setting [12]); 6680 nM in test [5] (setting [12]); 17200 nM in test [6] (setting [12]); 7710 nM in test [7] (setting [12]); not below 45000 nM in test [8] (setting [12]).
